From the domain aggregation screens of Martell et al. (2025)

Assay: soluble fraction after stress (log2 fold change); higher = more stays soluble; pooled small domains, quantitative proteomics
Conditions: stress: 75 degC
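Also: 20 min heating vs room temperature control held 20 min.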

| Sequence | soluble fraction (log2) |
| --- | --- |
| HMDLQNIQNQLNTEFAKSDTRIIFWFDDKGEYEDEVSELQLGDVKLHILDGLNWFYSKYLLNEA | -0.141 |
| HMNLVELKHAEEFNTLIIQDIGGRMKPAHTLASELVRKVFHNDDFNGIDPRKVFLSIIENSKVWFNVPFI | 0.0116 |
| HMNRYPIQTEVHAFNDDIIKEAINFEMSRGGQIFFVNNRIPQLYELENTIHRLVPDARVVIGHGQMP | -0.216 |
| HMSVLLKEEGSLQLARHGAAYFIIYSAQEHPNQRRHLKISEEESNRIMEGTPIEEIFLAYSG | -1.67 |
| HMERRDEINSVVSRYVSAITEGKYDLAEVDETGKLRVQTEGREVLPEALSRGTLEQFYFAFRMAVGSI | 0.04 |
| HMKLSIGGTIEKLRRNKGLSHQQLANALGVTPDTVEKWEINAAYPDITLLSPIARLLGTTLDALLMF | -1.77 |
| HMIMTEKEKKLLNRYIMHDTIHKLYHEQNKSMRWIADNLGINFRTVQKYLDMDSGEFQKYSESISNR | -0.97 |
| HMEYQTVEKSEAEQIIQELEKAERLALKVYSKNDIITGISVSDGKSYYFSAELVPMLKNIIENPEIKIL | -0.795 |
| HMDVLSPEEWIEFRTAYNNNRYISQYGSKGATIEDDYATRLAMIGGKESYYFLNDPRWTEPGYGNLK | -0.5 |
| HMPSPTPEQVLKAFTDAAMQKNTVEELKQAFAKAWKMLEGTPEQHKAQDVYNIRRDELEGAA | 0.376 |
| HMAVSDPTAGGIKALMYPNPAQDRLSVALDIPAGLDKQAQMTVTDMMGRVVTQQQVTLNDGFQVFEL | 0.268 |
| HMHGLNQNKPIPIADIVNSVNNYLTSLGKKTITDNSVLSNLKKAAKYLNTAYNLVLRPDSLNMTVTLL | 0.323 |
| HMEDPLGDLIGRIAAATGRPVQDIVAEVHRVVTDHFDGNLRVEAAAVILARKYGVAFEDKLSALQRSV | 0.0325 |
| HMLDPVLQREKDESFTDYHIRLFKNKDTYHIDTKTIATLLNKDQGTNYDESKWRKDFKQYERWNDYIMSKN | 0.116 |
| HMDYGTATASAILYLEKIDPENPYLLLAKDTITTNPKMSVNFALKGIIESKKGEKEENLNKALEIMSSL | -0.144 |
| HMSSAYLTVRGIDIDVIYKDIKNLHIAVYPPFGRVRVAAPSHLDDDQVRLAVIQRLTWIKRQRERLRST | -1.62 |
| HMGPASTGAHQLGLKPGDEVTHRAWGEGVVTSTTGEGDRAEAVVDFDAVGEKRLLLAWAPLER | 0.0111 |
| HMDKPVIEDVSFDDLAYMVGERVIIRTHLRSTRDGELKSFNRAGILVSLRNRPGMELEIPRSTVASAQVVW | -2.39 |
| HMEGSLQEDKVKEYQDRFKEELSNDLNTANSITVLYDLIKDDTLNGTTKRYLIEDFDKILSLDLIKE | 0.167 |
| HMTTEPYILTRMPDGSIKAEPNLNYKGPEQKPGSNIQVKGADGRIYLVPIDGQGKPGKPQLVD | 0.0898 |
| HMARAGKLAQDMAVWTKETMLNTERNFISLRHFKRELLRRTLAPGESEQTVRAMEEAGYIQVKDGLVFPIK | -2.43 |
| HMDPRTSSLTPQERKVLELVGGGLTNRQIAAEMFLAEKTVKNYVSSLLAKLGFERRTQAAVFIASPAF | -0.54 |
| HMSLEDMILSLSSRIRRGESLHFRELLVAIETKSGMVTIFMAVLELLKQQVMEMRYEDDDIIFT | -1.04 |
| HMWKQISSEAELLPAVRSVIQANPGEAEKLRNGEMAPLEFLTGLVMKKTNGMAVPQIVKTLIKKELKI | 0.0414 |
| HMGIVAGGTQSIATLRAIDTTDAQLYPDKILINVEDAGLYRLDRQSTATDDGNQVIKPTVGVGRWLKMTS | -0.15 |
| HMKSTPMYATAIVNIRSKAGTDSEILGKLNPSEEISVISSENGWSKVSYNGKEAYISSNYLSNAKP | -0.0974 |

| Sequence | soluble fraction (log2) |
| --- | --- |
| HMTRETTQAWWEARQTLPSGEQRSAASLSQEASHVRRFYRWAMQQGLTDRNPADWLPDVRQK | -0.603 |
| HMEYELYALKEEVLKRLTREDRELLILLFEERRTIHAVAQRLGLSDSAVYKRRTQLVNKVKVIASMLM | -2.22 |
| HMSAEVSEIEIQRIISYYRNQNGVPDKYNEIFDRIAAQYTDEQLKVISNFLPSDVKQYLSFNNEKYKSLG | -0.904 |
| HMEQYYVFFAGGMTIGTKEWYESILPENIATSYDDILEGKMMPASLEQIEFYNSHKDYDLYHLFYML | -4.25 |
| HMKNINTNIGKNLKRIRKLRGLTIDALATSSGVSKSMISEIERGIRNPSITIIWSLANALKTPLNYFLKE | -1.46 |
| HMQNAETPDVAAEFRTWTSADGQFQVIAKLVKLDGESVHLERQDDGRQIAVPLGKLSSEDRLFLRGVRP | -0.184 |
| HMSDPELNDNEKKIYDIIFNKKSMDLTELKNLSELSNKQWDKGIKSLSKQDFVKVIKTEEALIVELV | -0.509 |
| HMGELDPKIIAQINTFLQGITKLIEHPGNKDAKKTALGALHKLTFDQNITANFGKQLGQLDQVIQSSEET | 0.0337 |
| HMETGEDSLRRYFNSLPGSASKREILEDNPTVSQRTTERILQKLQAEGFIEKVGAARATRYRKVKQ | 0.259 |
| HMQLFKFKNAMMELAKNKNITLDTAEKAIGLEAGFTELVARGVKELALSDVIKISKYFNTTMDSVLD | -1.44 |
| HMTEQKNNEQQNAVNEKKQALKQLMEKGKEKGSLSYNEVNALLDKLEFTEDQKAIVYDQLHSEDIELQ | 0.3 |
| HMQGISGIERSLLDALAFEPAGLDALQARTGLDTPTLQALLMGLELQGHVARLPGSLFQRLVR | -0.9 |
| HMENIIFDIGFHKGEDTLFYLLKGYRVIAVDADPDLINEWQNIFKKYIENGKLLLLNYVISDT | -1.29 |
| HMGKRKDFTYTGNYFSEYKNQTFPSLSSFLKLVGKYENYGTIKRRVRFGWDIDEAILRENIN | -1.94 |
| HMSVLDEVRKLSFHQRNAVFLFYFEGYSMKEIAQIFHVKEGTVSSWLTRARKQLRKQMEEEVLYDESLP | -0.473 |
| HMDRVMPVPEALIGMRFDIAVSRMLGVSRSQAAAYIDRGQVSIAGRGSQRSAQKSEKLVQGDSIEVAIA | -1.39 |
| HMFSDDEINRLKARDSILVNLRDSEKQVWELYTDGKTVQNIANQLNKHKQSISATIINIKNKISRKQNMLK | -0.709 |
| HMYSYNKEEVGKRIKSIRQQKGLTQESFGELFGASKGNVATWEKGISLPNASRLREIADLVSITVEELLYG | -0.735 |
| HMRGWGTVKRRTPKSGRYRASYIGPDGKRYAADHTYAAKVDADAWLSSERALITAGVWTPPTDRVT | -0.688 |
| HMVFTEEEMLEKIKEYLSTNSYINRRAMETLFNLRQSTALKWLGHFTEIGVLRKEGERNYPVYFLNN | -0.972 |
| HMGPSLIRIASNPVAEVFIDGTRVGTTPFEMPADGTLKTVRLTAKDHDDLVVPLRSMKSMEIMLTLRRI | -2.54 |
| HMRQQQISAAIKTSVNGTVDYYVRRLPERDPRGDFLEVWDDLQKVIQAAHGIQVSHDELYEYFRRLK | -0.833 |
| HMEIGNVIAKLRVSNGLNQREFAKKLEVSNGAVAMWETNKRQPDLEMIKKISNLFDVPTDYILGAGTFQ | -0.838 |
| HMARIDYHAMDSDDLSFSEGELLEIYDKPGSFWWKGRSLVSGDEGDIPS | -0.0708 |
| HMKKYLIIDAANEKIIFKIIDNNKTYTNDYENSRKNFDRFAVLLFNFLNKNMISFDTIDKAL | -0.118 |
| HMTEEDVVIFSGLSDRDLKMVQTELANSGIKYTLPTSGTVSVPNSEIARAQMVLAMAGIPRS | 0.246 |

| Sequence | soluble fraction (log2) |
| --- | --- |
| HMSRPLISNMLRLLNLPPTVQRKVAAGVISAGHARALLGLNDEKEIEKLANRIVAEGLSVRATEEIVAIA | -1.62 |
| HMATIIGSIGIVTQKVGLTGVPGRVYVNNESWAAISANGKEIENDTQVIVVKIDGATLIIEKKG | -2.22 |
| HMTNPPTPADTLFNTVRGVLQSILKSPMKDTEVASALNVSKAQARSWLQRLSDEGLIEKRKNPTAYVL | -0.592 |
| HMSIPVLKDGTYESWGNEKVYKVGDRVMVGSNGYVAKWWNQDETPEKAIINPNDSPWRPMTESEIMEVLK | -0.128 |
| HMTIENTDTFLETLWEQVQRASVDENGIITSRVLIWDEGTKLDEILSWFDKRHSLGALYLQFG | -2.66 |
| HMAEMLENQLKHAKSKQEANEYIAAAIGGVSDDDPDKEYLVAAYNEISKEFHHSSAYHRLPDT | 0.16 |
| HMNFKNMIDSLSGILFKKDPSAAIIDIGGVRLKVFITVGSYEQLPAKGEQVEILTYLHVKEDILNLYG | -1.85 |
| HMLPITPGQKYKFVVKSAEEAAAIIRDKLGEMAQVISVRQVEGEGLARFLKSPKLEIIAQVPVA | -0.35 |
| HMGTRTILGIDPGSRKTGFGIIRLDGSRTHYVSSGVIRIPDTALPERLKIIFASLNEIIQQFQPQEV | -0.339 |
| HMSVDDVALRLEFGPSDAEALAFVHRHGAILSETTDRDTGVVSVHVRLSEADAGRFNQRYGV | -0.0968 |
| HMRRRTLRQGATGSDVHAVQRLLNVDGAGLRTDGIFGPATERAVIAYQRKHGLAVDGVVGRETWTALLG | -0.743 |
| HMLEAKQIQDNWESLIKLIEDNFTGERKENLLKMYTHFQDRMMFAPASSKEHFHNAFPGGYVEHVL | -0.369 |
| HMLVATFGPTTGWEGREIIWDVDRFILVGHGAVPAAGVLDYDRRGQLIWAQPELRAWVVEVDRWETG | -2.22 |
| HMAKRKYKSFKDVAEFAQKLGIKSSTEWWAYVRGHEIPSDIPKDPSTYYKKEWTTWGDFLGTGYVSSA | -0.513 |
| HMALDSQEVGYNIEARGARPVVAQLGKAGQFSAVENSIRLGDDNWIALAPKLAGGGNAGFTAGIKSALS | -0.0514 |
| HMTNEQLSKAKSWVQIAVYAAEKLYGAGNGDQKLVYAEEILRKHGIRLDTATLKAMIDAQIKEMEN | -1.01 |
| HMNIAAVIGQTGVLQDDLKAGEQGTVKADNKLWTAVLAEGEEAVKKEERVDIVAVEGVKLIVRRNI | 0.663 |
| HMGKVTILSNPVKDALVIMGLHNAETIDVRLFDNTGRLVMQGSQSRMDISSLSPGLYILQVNGKILKVIK | -3.2 |
| HMKVTQDIIFKRNGEEIKSKVLEITPDLIIYIDYSRADNIAREINISEVNMIIYKNGTSEIFSRPEE | -1.69 |
| HMDRNEFVSTLRAALTGAVSPAIVEDNVRYYQNYISQEIASGKSEKEVLDGLGDPRLIARTIIDT | 0.0747 |
| HMSVPEAAERAIDVAQMRRALGELSPEQQRVLELAYFGGLTRQEIARATGTPLGTVHTRARLGLQNLRARL | -0.306 |
| HMINAQETEIYRFLIEKANRLYSMVLGLKREELMTATRQFEEEVKHSSIHHLPKIYQAFSSYLELLERG | -1.2 |
| HMPLVIIRGIEGVFSSEEKAEAIRKVTDALVSVKGENVRGFAWVVFEEVKSGDWGIGGESITAEKVIMSL | 0.158 |
| HMKIRIIKTASNAKAVQIVSYKNNKRIVLQHIGSAHTDETLNDLKILAEEWIKDYNHQLSIF | -2.88 |
| HMDIFGREAEVEQILQEVRFGDDPHYRLSIGILPVTGHAGAGKTALVRFIFHHEVARAEFTVRMWVHV | 0.154 |
